The results in this text go back to patent publication US20250108122A1 (SHANGHAI MABGEN BIOTECH, published 2025).

The chains are these.
B1: ADC-6 (hAb015-10-cys-D, with a DAR value of about 4) (antibody, human IgG1, kappa, V domains shown)
VH: EVQLVQSGAEVKKPGSSVKVSCKASGSSFSSYGINWVKQAPGQGLEWIGEIFPRSGNTYYNEKFEGRATLTADKSTSTAYMELRSLRSEDTAVYYCAKGDLGDFDYWGQGTTVTVSS
VL: DFVMTQTPLSLPVTPGEPASISCRSSQSIVHSDGNTYFEWYLQKPGQSPKLLIYKVSNRFSGVPDRFSGSGSGTDFTLKISRVEAEDVGVYYCFQGSHVPWTFGGGTKVEIKR
modifications: compound D (exatecan derivative linker-drug, Topo I inhibitor) coupled to cysteines after TCEP reduction; positions not given; mean n=3.46 per antibody (RP-HPLC)
B2: ADC-5 (HAB015-10-cys-D, with a DAR value of about 2) (antibody, human IgG1, kappa, V domains shown)
VH: EVQLVQSGAEVKKPGSSVKVSCKASGSSFSSYGINWVKQAPGQGLEWIGEIFPRSGNTYYNEKFEGRATLTADKSTSTAYMELRSLRSEDTAVYYCAKGDLGDFDYWGQGTTVTVSS
VL: DFVMTQTPLSLPVTPGEPASISCRSSQSIVHSDGNTYFEWYLQKPGQSPKLLIYKVSNRFSGVPDRFSGSGSGTDFTLKISRVEAEDVGVYYCFQGSHVPWTFGGGTKVEIKR
modifications: compound D (exatecan derivative linker-drug, Topo I inhibitor) coupled to cysteines after TCEP reduction; positions not given; mean n=1.81 per antibody (RP-HPLC)
notes: Antibody-drug conjugate of hAb015-10 with compound D
B3: ADC-7 (hAb015-10-cys-D, with a DAR value of about 6) (antibody, human IgG1, kappa, V domains shown)
VH: EVQLVQSGAEVKKPGSSVKVSCKASGSSFSSYGINWVKQAPGQGLEWIGEIFPRSGNTYYNEKFEGRATLTADKSTSTAYMELRSLRSEDTAVYYCAKGDLGDFDYWGQGTTVTVSS
VL: DFVMTQTPLSLPVTPGEPASISCRSSQSIVHSDGNTYFEWYLQKPGQSPKLLIYKVSNRFSGVPDRFSGSGSGTDFTLKISRVEAEDVGVYYCFQGSHVPWTFGGGTKVEIKR
modifications: compound D (exatecan derivative linker-drug, Topo I inhibitor) coupled to cysteines after TCEP reduction; positions not given; mean n=5.84 per antibody (RP-HPLC)
B4: ADC-3 (hAb015-10-cys-MC-vc-PAB-MMAE) (antibody, human IgG1, kappa, V domains shown)
VH: EVQLVQSGAEVKKPGSSVKVSCKASGSSFSSYGINWVKQAPGQGLEWIGEIFPRSGNTYYNEKFEGRATLTADKSTSTAYMELRSLRSEDTAVYYCAKGDLGDFDYWGQGTTVTVSS
VL: DFVMTQTPLSLPVTPGEPASISCRSSQSIVHSDGNTYFEWYLQKPGQSPKLLIYKVSNRFSGVPDRFSGSGSGTDFTLKISRVEAEDVGVYYCFQGSHVPWTFGGGTKVEIKR
modifications: MC-vc-PAB-MMAE coupled to cysteines after TCEP reduction; positions not given; mean n=3.09 per antibody (CE-SDS)
B5: ADC-8 (SN8-cys-MC-PAB-MMAE, with a DAR value of about 4) (antibody, human IgG1, kappa, V domains shown)
VH: EVQLVESGGGLVQPGGSLRLSCAASGYTFSSYWIEWVRQAPGKGLEWIGEILPGGGDTNYNEIFKGRATFSADTSKNTAYLQMNSLRAEDTAVYYCTRRVPIRLDYWGQGTLVTVSS
VL: DIQLTQSPSSLSASVGDRVTITCKASQSVDYEGDSFLNWYQQKPGKAPKLLIYAASNLESGVPSRFSGSGSGTDFTLTISSLQPEDFATYYCQQSNEDPLTFGQGTKVEIKR
modifications: MC-VC-PAB-MMAE coupled to cysteines after TCEP reduction; positions not given; mean n=3.59 per antibody (CE-SDS)
B6: hAb015-10 (antibody, human IgG1, kappa, V domains shown)
VH: EVQLVQSGAEVKKPGSSVKVSCKASGSSFSSYGINWVKQAPGQGLEWIGEIFPRSGNTYYNEKFEGRATLTADKSTSTAYMELRSLRSEDTAVYYCAKGDLGDFDYWGQGTTVTVSS
VL: DFVMTQTPLSLPVTPGEPASISCRSSQSIVHSDGNTYFEWYLQKPGQSPKLLIYKVSNRFSGVPDRFSGSGSGTDFTLKISRVEAEDVGVYYCFQGSHVPWTFGGGTKVEIKR
notes: Humanized form of the mouse hybridoma antibody mAb015; also called humanized anti-CD79b antibody hAb015-10; naked antibody

The target in the first test is T1, human CD79b protein on DoHH2 and WSU-DLCL2 cells (human, UniProt P40259 29-229).
T1 sequence (looked up): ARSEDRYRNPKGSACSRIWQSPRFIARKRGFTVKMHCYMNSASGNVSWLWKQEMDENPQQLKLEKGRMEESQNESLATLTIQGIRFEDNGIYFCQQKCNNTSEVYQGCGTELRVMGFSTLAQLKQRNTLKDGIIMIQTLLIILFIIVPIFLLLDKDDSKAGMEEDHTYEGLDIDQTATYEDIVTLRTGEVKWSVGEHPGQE
Description: cell-based or functional assay.
As to B1, the “IC50 of in vitro proliferation inhibition (MTT, 72 h), DoHH2 cells” value turned out to be 3.3 ng/mL and the “IC50 of in vitro proliferation inhibition (MTT, 72 h), WSU-DLCL2 cells” value is 54.2 ng/mL.
As to B2, the “IC50 of in vitro proliferation inhibition (MTT, 72 h), DoHH2 cells” value worked out at 8.5 ng/mL and the “IC50 of in vitro proliferation inhibition (MTT, 72 h), WSU-DLCL2 cells” value turned out to be 68.3 ng/mL.
In the same order, the values of B3 are 2 ng/mL and 53.4 ng/mL.
B4: the “IC50 of in vitro proliferation inhibition (MTT, 72 h), DoHH2 cells” value worked out at 3.3 ng/mL and the “IC50 of in vitro proliferation inhibition (MTT, 72 h), WSU-DLCL2 cells” value was 5.9 ng/mL.
In the same order, the values of B5 are 80.6 ng/mL and 117 ng/mL.

In a further test the target is T2, human CD79b protein (human, UniProt P40259 29-159, limits assumed).
T2 construct: Recombinant protein used in the Biacore assay
T2 sequence (looked up): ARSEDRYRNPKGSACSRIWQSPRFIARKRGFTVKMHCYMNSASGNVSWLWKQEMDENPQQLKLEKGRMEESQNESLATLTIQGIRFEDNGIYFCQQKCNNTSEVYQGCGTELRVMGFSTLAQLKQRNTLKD
The test is described as follows: Biacore affinity assay, 1:1 Langmuir fit; column head prints EC50 (nM). For orientation: SPR reads the build-up and loss of mass on a sensor chip optically.
Description: Data fitting was performed with a (1:1) Langmuir model using BIAevaluation version 4.1, GE software to obtain affinity values.
Regarding B6, the “KD (binding affinity)” value came to 0.38 nM.
